Numbered stars: 1 amine (or outer) side, 2 acyl side, 3 side chain; on linkers, the order of the positions; unused ones are H or OH. Bridge positions count the residues as written; N and C are the ends. Ends that are not written are not given here. acetyl = acetyl (haloacetyl before ring closure) on the side-chain amine, O=C(C[*:1])[*:2]; COCH2 = acetyl group that carries the bridge
target: T1, Recombinant Human FGFR2 alpha (IIIc) Fc Chimera Protein (Homo sapiens, UniProt P21802); test: ELISA binding affinity of enzymatically synthesized peptide to FGFR; conditions: ELISA luminescence signal at 10 nmol/L peptide, SEQ ID NO: 47 at 10 nmol/L standardized to 1; enzyme synthesis product
T1 construct: Fc (chimera); purchased R&D systems 712-FR-050
In short: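 FGFR2 alpha (IIIc) Fc chimera (5 ng/well) was immobilized, and Myc-tagged peptide was bound 3 h at room temperature, then detected with anti-Myc antibody (2 h) and chemiluminescent substrate. Signal was corrected against FGFR-free wells. Score A–D was the luminescence at 10 nmol/L peptide, normalized to cyclic peptide SEQ ID NO: 47.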

T1 sequence (P21802 with tags, fused parts or gaps limits assumed): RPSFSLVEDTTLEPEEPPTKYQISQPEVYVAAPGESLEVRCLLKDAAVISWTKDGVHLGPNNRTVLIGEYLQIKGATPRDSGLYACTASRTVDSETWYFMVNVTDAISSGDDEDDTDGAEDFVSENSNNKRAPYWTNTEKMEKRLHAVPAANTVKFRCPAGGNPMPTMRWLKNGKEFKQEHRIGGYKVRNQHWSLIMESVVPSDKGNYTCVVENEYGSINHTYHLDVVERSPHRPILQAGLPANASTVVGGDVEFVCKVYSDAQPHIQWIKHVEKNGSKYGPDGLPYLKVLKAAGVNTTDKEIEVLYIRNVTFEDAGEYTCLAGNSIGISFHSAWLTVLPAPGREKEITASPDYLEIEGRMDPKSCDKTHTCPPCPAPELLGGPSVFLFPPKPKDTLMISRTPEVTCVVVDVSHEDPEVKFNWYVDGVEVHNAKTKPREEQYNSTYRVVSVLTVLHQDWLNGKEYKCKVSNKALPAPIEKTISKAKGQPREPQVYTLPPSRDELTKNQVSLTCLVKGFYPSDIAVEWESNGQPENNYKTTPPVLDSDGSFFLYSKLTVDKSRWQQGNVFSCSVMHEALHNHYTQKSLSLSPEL

Row | Substance | Evaluation result of binding affinity to FGFR
1 | 85 (RCPQNFINPVQWRYFQHYK(COCH2)N; thioether 2-19 (inferred)) [compound 85] | A (0.7 or more)
2 | 162 (YCTENYLDPEQYQYFIYFK(COCH2)Y; thioether 2-19 (inferred)) [compound 162] | A (0.7 or more)
3 | 222 (YCEENYLDLEQYQYFIYFK(COCH2)Y; thioether 2-19 (inferred)) [compound 222] | A (0.7 or more)
4 | 187 (YCEENFLDPEQYQYFIYFK(COCH2)Y; thioether 2-19 (inferred)) [compound 187] | A (0.7 or more)
5 | 90 (QCPQNFINPVQWRYRQHYK(COCH2)N; thioether 2-19 (inferred)) [compound 90] | C (0.1 or more and less than 0.5)
6 | 119 (QCRYFWQYVLERYRVRLPK(COCH2)E; thioether 2-19 (inferred)) [compound 119] | A (0.7 or more)
7 | 76 (FCPQNFINPVQWRYFQHYK(COCH2)N; thioether 2-19 (inferred)) [compound 76] | A (0.7 or more)
8 | 193 (YCEENRLDPEQYQYFIYFK(COCH2)Y; thioether 2-19 (inferred)) [compound 193] | C (0.1 or more and less than 0.5)
9 | 122 (QCENWVNSTQFEFFWQYK(COCH2)T; thioether 2-18 (inferred)) [compound 122] | B (0.5 or more and less than 0.7)
10 | 208 (YCEENYLLPEQYQYFIYFK(COCH2)Y; thioether 2-19 (inferred)) [compound 208] | C (0.1 or more and less than 0.5)
11 | 114 (YCTDNYIDDIQFWYLFLYK(COCH2)H; thioether 2-19 (inferred)) [compound 114] | A (0.7 or more)
12 | 92 (QCPQNFINPVQWRYFQHFK(COCH2)N; thioether 2-19 (inferred)) [compound 92] | A (0.7 or more)
13 | 176 (YCESNYLDPEQYQYFIYFK(COCH2)Y; thioether 2-19 (inferred)) [compound 176] | A (0.7 or more)
14 | 44 (ACEYNYWNQVQFTFLIAFK(COCH2)R; thioether 2-19 via acetyl) [compound 44] | B (0.5 or more and less than 0.7)
15 | 118 (LCPVPQQTDYLRWYQIIHK(COCH2)Q; thioether 2-19 (inferred)) [compound 118] | C (0.1 or more and less than 0.5)
16 | 164 (YCRENYLDPEQYQYFIYFK(COCH2)Y; thioether 2-19 (inferred)) [compound 164] | A (0.7 or more)
17 | 182 (YCEEWYLDPEQYQYFIYFK(COCH2)Y; thioether 2-19 (inferred)) [compound 182] | C (0.1 or more and less than 0.5)
18 | 93 (QCPQNFINPVQWRYFQHWK(COCH2)N; thioether 2-19 (inferred)) [compound 93] | A (0.7 or more)
19 | 217 (YCEENYLTPEQYQYFIYFK(COCH2)Y; thioether 2-19 (inferred)) [compound 217] | A (0.7 or more)
20 | 148 (ECEENYLDPEQYQYFIYFKY; Description of Artificial Sequence: Cyclic peptide) [compound 148] | A (0.7 or more)
21 | 68 (KCQNFINPVQWRYFQHYK(COCH2)N; thioether 2-18 (inferred)) [compound 68] | A (0.7 or more)
22 | 42 (QCYFLSQYILERYKVHK(COCH2)L; thioether 2-17 via acetyl) [compound 42] | A (0.7 or more)
23 | 46 (SCIQQNYFWQYVFERYRYKQ; Description of Artificial Sequence: Cyclic peptide) [compound 46] | B (0.5 or more and less than 0.7)
24 | 111 (QCDQEFYLALYAWTLRSYK(COCH2)L; thioether 2-19 (inferred)) [compound 111] | C (0.1 or more and less than 0.5)
25 | 72 (PCPQNFINPVQWRYFQHYK(COCH2)N; thioether 2-19 (inferred)) [compound 72] | A (0.7 or more)
26 | 192 (YCEENDLDPEQYQYFIYFK(COCH2)Y; thioether 2-19 (inferred)) [compound 192] | C (0.1 or more and less than 0.5)
27 | 36 (CRALLRGAPFHLAEK(COCH2); thioether 1-15) [compound 36] | D (less than 0.1)

More lines, now with the values ahead:

Row | Evaluation result of binding affinity to FGFR | Substance
28 | A (0.7 or more) | 240 (YCEENYLDPVQYQYFIYFK(COCH2)Y; thioether 2-19 (inferred)) [compound 240]
29 | A (0.7 or more) | 348 (YCMENYLDPEQYQYFIYFK(COCH2)Y; thioether 2-19) [compound 348]
30 | C (0.1 or more and less than 0.5) | 379 (NCQLYYTYLYLHTLK(COCH2)F; thioether 2-15 (inferred)) [compound 379]
31 | A (0.7 or more) | 287 (YCEENYLDPEQYQYFDYFK(COCH2)Y; thioether 2-19) [compound 287]
32 | A (0.7 or more) | 282 (YCEENYLDPEQYQYFWYFK(COCH2)Y; thioether 2-19) [compound 282]
33 | A (0.7 or more) | 257 (YCEENYLDPEQYGYFIYFK(COCH2)Y; thioether 2-19 (inferred)) [compound 257]
34 | A (0.7 or more) | 256 (YCEENYLDPEQHQYFIYFK(COCH2)Y; thioether 2-19 (inferred)) [compound 256]
35 | A (0.7 or more) | 305 (YCEENYLDPEQYQYFIHFK(COCH2)Y; thioether 2-19 (inferred)) [compound 305]
36 | A (0.7 or more) | 402 (PCEVYNYWYPTQWFFFTQFK(COCH2)K; thioether 2-20 (inferred)) [compound 402]
37 | A (0.7 or more) | 309 (YCEENYLDPEQYQYFIYFK(COCH2)L; thioether 2-19 (inferred)) [compound 309]
38 | B (0.5 or more and less than 0.7) | 385 (QCAYYHLYQYLHQLK(COCH2)V; thioether 2-15 (inferred)) [compound 385]
39 | A (0.7 or more) | 254 (YCEENYLDPEQFQYFIYFK(COCH2)Y; thioether 2-19 (inferred)) [compound 254]
40 | A (0.7 or more) | 392 (YCHENYLDPEQYQYFHYFK(COCH2)Y; thioether 2-19 (inferred)) [compound 392]
41 | B (0.5 or more and less than 0.7) | 261 (YCEENYLDPEQYFYFIYFK(COCH2)Y; thioether 2-19) [compound 261]
42 | A (0.7 or more) | 323 (YCAENYLDPEQYQYFIYFK(COCH2)Y; thioether 2-19 (inferred)) [compound 323]
43 | A (0.7 or more) | 272 (YCEENYLDPEQYQFFIYFK(COCH2)Y; thioether 2-19) [compound 272]

Row | Evaluation result of binding affinity to FGFR | Substance
44 | A (0.7 or more) | 234 (YCEENYLDREQYQYFIYFK(COCH2)Y; thioether 2-19 (inferred)) [compound 234]
45 | B (0.5 or more and less than 0.7) | 276 (YCEENYLDPEQYQYYIYFK(COCH2)Y; thioether 2-19) [compound 276]
46 | C (0.1 or more and less than 0.5) | 389 (RCHHNFHHARQHGFFWHYK(COCH2)R; thioether 2-19 (inferred)) [compound 389]
47 | A (0.7 or more) | 347 (MCEENYLDPEQYQYFIYFK(COCH2)Y; thioether 2-19) [compound 347]
48 | A (0.7 or more) | 354 (YCEENYLDPMQYQYFIYFK(COCH2)Y; thioether 2-19) [compound 354]
49 | A (0.7 or more) | 324 (YCEANYLDPEQYQYFIYFK(COCH2)Y; thioether 2-19 (inferred)) [compound 324]
50 | A (0.7 or more) | 321 (YCEENYLDPEQYQYFIYFK(COCH2)H; thioether 2-19 (inferred)) [compound 321]
51 | A (0.7 or more) | 317 (YCEENYLDPEQYQYFIYFK(COCH2)T; thioether 2-19 (inferred)) [compound 317]
52 | A (0.7 or more) | 247 (YCEENYLDPTQYQYFIYFK(COCH2)Y; thioether 2-19 (inferred)) [compound 247]
53 | A (0.7 or more) | 430 (CHENYLDPEQYQYFHYFK(COCH2)Y; thioether 1-18 via acetyl) [compound 430]
54 | A (0.7 or more) | 244 (YCEENYLDPNQYQYFIYFK(COCH2)Y; thioether 2-19 (inferred)) [compound 244]
55 | C (0.1 or more and less than 0.5) | 405 (QCLTQRVYLRQLAYYRLYRK(COCH2)I; thioether 2-20 (inferred)) [compound 405]
56 | A (0.7 or more) | 290 (YCEENYLDPEQYQYFHYFK(COCH2)Y; thioether 2-19) [compound 290]
57 | B (0.5 or more and less than 0.7) | 291 (YCEENYLDPEQYQYFIGFK(COCH2)Y; thioether 2-19) [compound 291]
58 | A (0.7 or more) | 307 (YCEENYLDPEQYQYFIYWK(COCH2)Y; thioether 2-19 (inferred)) [compound 307]
59 | A (0.7 or more) | 293 (YCEENYLDPEQYQYFILFK(COCH2)Y; thioether 2-19) [compound 293]

Reference: US20260008815A1, “CYCLIC PEPTIDE OR SALT THEREOF, AND USES THEREOF” (FUJIFILM Corporation, priority 2023, published 2026)
